To fix the notation:
B1: E3 ubiquitin-protein ligase COP1 (Arabidopsis thaliana (Mouse-ear cress)), P43254 (parent)
chain: MEEISTDPVVPAVKPDPRTSSVGEGANRHENDDGGSGGSEIGAPDLDKDLLCPICMQIIKDAFLTACGHSFCYMCIITHLRNKSDCPCCSQHLTNNQLYPNFLLDKLLKKTSARHVSKTASPLDQFREALQRGCDVSIKEVDNLLTLLAERKRKMEQEEAERNMQILLDFLHCLRKQKVDELNEVQTDLQYIKEDINAVERHRIDLYRARDRYSVKLRMLGDDPSTRNAWPHEKNQIGFNSNSLSIRGGNFVGNYQNKKVEGKAQGSSHGLPKKDALSGSDSQSLNQSTVSMARKKRIHAQFNDLQECYLQKRRQLADQPNSKQENDKSVVRREGYSNGLADFQSVLTTFTRYSRLRVIAEIRHGDIFHSANIVSSIEFDRDDELFATAGVSRCIKVFDFSSVVNEPADMQCPIVEMSTRSKLSCLSWNKHEKNHIASSDYEGIVTVWDVTTRQSLMEYEEHEKRAWSVDFSRTEPSMLVSGSDDCKVKVWCTRQEASVINIDMKANICCVKYNPGSSNYIAVGSADHHIHYYDLRNISQPLHVFSGHKKAVSYVKFLSNNELASASTDSTLRLWDVKDNLPVRTFRGHTNEKNFVGLTVNSEYLACGSETNEVYVYHKEITRPVTSHRFGSPDMDDAEEEAGSYFISAVCWKSDSPTMLTANSQGTIKVLVLAA
partner: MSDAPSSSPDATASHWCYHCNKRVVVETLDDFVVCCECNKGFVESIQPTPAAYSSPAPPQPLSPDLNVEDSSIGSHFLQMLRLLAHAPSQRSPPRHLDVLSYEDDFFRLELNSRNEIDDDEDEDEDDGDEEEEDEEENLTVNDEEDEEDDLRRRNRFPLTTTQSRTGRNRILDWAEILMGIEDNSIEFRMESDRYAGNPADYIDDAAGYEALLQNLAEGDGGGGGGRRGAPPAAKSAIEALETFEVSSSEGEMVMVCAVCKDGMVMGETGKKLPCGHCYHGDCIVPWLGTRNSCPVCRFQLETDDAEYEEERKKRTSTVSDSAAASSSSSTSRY
B2: E3 ubiquitin-protein ligase CIP8 (Arabidopsis thaliana (Mouse-ear cress)), Q9SPL2 (parent)
chain: B1 partner
partner: B1 chain

In the first test the parent is B1. To be noted: with cip8_arath CIP8, Q9SPL2.
Take C67A;H69A;C72A;C75A: the “effect of a mutation on the interaction” value is listed as “disrupting interaction”.

The next test covers variants of B2. To be noted: with cop1_arath COP1, P43254.
As for MSDAPSSSPDATASHWCYHCNKRVVVETLDDFVVCCECNKGFVESIQPTPAAYSSPAPPQPLSPDLNVEDSSIGSHFLQMLRLLAHAPSQRSPPRHLDVLSYEDDFFRLELNSRNEIDDDEDEDEDDGDEEEEDEEENLTVNDEEDEEDDLRRRNRFPLTTTQSRTGRNRILDWAEILMGIEDNSIEFRMESDRYAGNPADYIDDAAGYEALLQNLAEGDGGGGGGRRGAPPAAKSAIEALETFEVSSSEGEMVMVCAVCKDGMVMGETGKKLPAGACYAGDAIVPWLGTRNSCPVCRFQLETDDAEYEEERKKRTSTVSDSAAASSSSSTSRY [C275A;H277A;H280A;C283A], the “effect of a mutation on the interaction” value is listed as “disrupting interaction”.
